Data as given in paper PMC12276012, “Molecular mechanisms of biomolecular condensate formation in Drosophila melanogaster siRNA biogenesis”.

Target: T1, Loqs-PD 1,2-mut (Drosophila melanogaster, UniProt Q9VJY9-4 1-359, K189A;K190A;K301A;K302A)
T1 sequence: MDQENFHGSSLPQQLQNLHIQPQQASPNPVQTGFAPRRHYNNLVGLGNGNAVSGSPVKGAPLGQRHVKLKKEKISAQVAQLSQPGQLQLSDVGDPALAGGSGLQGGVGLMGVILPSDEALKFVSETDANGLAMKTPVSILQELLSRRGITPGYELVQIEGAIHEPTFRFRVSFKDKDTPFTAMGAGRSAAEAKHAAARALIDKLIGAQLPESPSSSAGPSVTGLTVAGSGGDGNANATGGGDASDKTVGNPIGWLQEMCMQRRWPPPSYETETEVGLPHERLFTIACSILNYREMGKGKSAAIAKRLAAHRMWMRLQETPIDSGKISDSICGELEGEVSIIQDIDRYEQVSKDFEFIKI
Test: EMSA; 400 nM RNA, 400-3200 nM protein; EMSA: 20 mM sodium phosphate pH 6.5, 150 mM NaCl, 15% glycerol, 15 min, 1% agarose 1x TBE; NMR: 20 mM sodium phosphate pH 6.5, PS-I or PS-II buffer (50-500 mM NaCl), 292 K for Loqs-PD deltaC
Details: protein: recombinant; tags: His6-GB1 or His6 tag, cleaved by TEV; label: 3' Cy5; hairpin, 21 bp stem, GUGA loop

Does GGAGCUUUCAAAAUGAUCUCCGUGAGGAGAUCAUUUUGAAAGCUCC (structured_RNA, 3' pCp-Cy5 ligated (adds one C)) [21 bp hairpin dsRNA, Cy5] bind?
Result: no binding
